In article PMC6863705 (Protein Science : A Publication of the Protein Society, 2019):
Positions count from the first letter of the chain named. Names and notes keep the numbering of the source.

T1: Ssk1-R2-W638A (S. cerevisiae, UniProt Q07084 495-712, W638A)
T1 sequence: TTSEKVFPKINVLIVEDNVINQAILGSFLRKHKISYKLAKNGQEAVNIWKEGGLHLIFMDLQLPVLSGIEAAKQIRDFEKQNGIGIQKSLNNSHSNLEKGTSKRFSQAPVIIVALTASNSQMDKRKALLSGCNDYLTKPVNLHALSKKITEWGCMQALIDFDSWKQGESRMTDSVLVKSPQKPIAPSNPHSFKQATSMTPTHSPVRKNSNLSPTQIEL

T2: Ssk1-R2-K525A (S. cerevisiae, UniProt Q07084 495-712, K525A)
T2 sequence: T1 sequence with K31A, A144W

T3: Ssk1-R2-R524A (S. cerevisiae, UniProt Q07084 495-712, R524A)
T3 sequence: T1 sequence with R30A, A144W

T4: Receiver domain of Ssk1 (Ssk1-R2), wild type (S. cerevisiae, UniProt Q07084 495-712)
T4 sequence: T1 sequence with A144W

T5: Selenomethionine derivative of Ssk1-R2-W638A (S. cerevisiae, UniProt Q07084 495-712, W638A, selenomethionine incorporated)
T5 sequence: T1 sequence

B1: Fluoresceinated Ypd1-T12C variant (Ypd1-T12C~F) (natural protein, S. cerevisiae, UniProt Q07688 1-167, looked up)
chain: MSTIPSEIINWCILNEIISMDDDDSDFSKGLIIQFIDQAQTTFAQMQRQLDGEKNLTELDNLGHFLKGSSAALGLQRIAWVCERIQNLGRKMEHFFPNKTELVNTLSDKSIINGINIDEDDEEIKIQVDDKDENSIYLILIAKALNQSRLEFKLARIELSKYYNTNL
modifications: 5-iodoacetamidofluorescein (5-IAF) on the cysteine at 12 (T12C)
B2: Ypd1 (histidine phosphotransfer protein) from S. cerevisiae (natural protein, UniProt Q07688 1-167, looked up)
chain: B1 chain with C12T

What was measured:
Ssk1-R2-W638A = biological target: T1, Ssk1-R2-W638A; test: other fluorescence titration
Ssk1-R2-K525A = biological target: T2, Ssk1-R2-K525A; test: other fluorescence titration
Ssk1-R2-R524A = biological target: T3, Ssk1-R2-R524A; test: other fluorescence titration
[1] = biological target: T4, Receiver domain of Ssk1 (Ssk1-R2), wild …; test: other fluorescence titration
[2] = biological target: T5, Selenomethionine derivative of …; test: crystal structure

Kd (Ssk1-R2-W638A) | Kd (Ssk1-R2-K525A) | Kd (Ssk1-R2-R524A) | Kd [1] | binding result [2] | Binder
219 nM | 640 nM | 918 nM | 23.7 nM | – | B1
– | – | – | – | binds | B2
